Results reported in the supplement of paper PMC10126150.
± gives the standard deviation of the averaged measurements.

Test system: ATP
Experiment: switch fluorescence ratio, 500 uM ATP over buffer (Cy3 cluster intensity, sum of 5 cycles each) (fold (ratio)); higher = stronger signal-on switching upon ATP binding; sequences stand for … in TCGTCGGCAGCGTCAGATGTGTATAAGAGACAGTTTTTTTTTTTTTTTTTTTTTTTTT…TC
Settings: aptamer strand: ATP DNA aptamer (quencher-CACCTGGGGGAGTATTGCGGAGGAAGG + anchor), 100 nM annealed; ATP concentration: 500 uM
Procedure, shortened: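 Cy3-labelled switching-strand clusters on a modified Illumina MiSeq flow-cell were annealed to 100 nM quencher-labelled ATP aptamer, imaged in selection buffer, then imaged after 15 min with 500 uM ATP at 22 °C. Five buffer/ATP cycles ran, with NaOH stripping and re-annealing between them. The fluorescence ratio is summed target-cycle over summed buffer-cycle Cy3 intensity per cluster, averaged per switch-domain sequence. Clusters outside 100-1000 RFU were excluded.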
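Note: ATP exposure 15 min at 22 °C before imaging.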

Sequence | switch fluorescence ratio
GGCTTTGGAT | 0.977 ± 0.018
AAGGTTTCGT | 1 ± 0.024
GGGTATTGGA | 0.9828 ± 0.0047
AAGTTGTGCT | 0.972 ± 0.014
GAGTTTGCGT | 1.03 ± 0.015
TTGTTTTACA | 0.9843 ± 0.0096
TGGGTTTGTG | 0.996 ± 0.033
CGAAAAAAAA | 0.948 ± 0.062
CGTTTTTAAG | 0.982 ± 0.0052
AGCATGGCTT | 1.04 ± 0.054
AAAACTTAGA | 0.956 ± 0.041
ATCCGTTTTG | 0.986 ± 0.02
TTGCCTGTTT | 0.967 ± 0.049
TGACTCGGTG | 0.984 ± 0.015
AAGTCGGGAC | 1.08 ± 0.039
GAATGTTAAT | 1.04 ± 0.027
GAGAATCGTC | 1.05 ± 0.064
GAATAAGGTA | 0.993 ± 0.011
GCAGGTTGAG | 1.01 ± 0.044
TTTGTGGGTA | 1.01 ± 0.039
AGAAACCGTT | 1.03 ± 0.021
GGGGACAGTG | 1.01 ± 0.13
GACCGAGTTC | 1.005 ± 0.0024

Sequence | switch fluorescence ratio
AGAATTGGGT | 0.9964 ± 0.0014
CGTTCTTGTC | 1.05 ± 0.047
TGATCGGGGT | 1.02 ± 0.018
TACGAGTTAA | 0.97 ± 0.015
AGCTGATACT | 2 ± 0.061
TGTTTTTAAT | 0.99 ± 0.025
TTCAATGTAG | 1 ± 0.029
AGTCCGGGTT | 0.991 ± 0.036
GAATCACTAA | 1 ± 0.059
TAGTGGAGTG | 1 ± 0.011
TAGCTGAAGT | 0.975 ± 0.038
AAATGAAAAC | 0.98 ± 0.037
TTTGGGTGGG | 0.985 ± 0.041
AAGATCGGGG | 0.972 ± 0.049
ATGTGTCAAG | 0.9675 ± 0.0065
CGTCGGAATG | 1.091 ± 0.0045
TGTTGGGTGG | 0.9948 ± 0.00021
TACTGACTTG | 0.989 ± 0.014
ATTTTGTGTG | 0.989 ± 0.011
TTAAGAGACA | 1.03 ± 0.033
CATGATGGGG | 0.96 ± 0.027
ACATGGAGAG | 0.985 ± 0.052
TCTAATGGGC | 0.993 ± 0.05

Sequence | switch fluorescence ratio
GGGAAATGTT | 1.06 ± 0.016
CCAAGCGGTA | 1.3 ± 0.026
TCTAGGGACA | 1.25 ± 0.063
GTGGGGGAGC | 0.985 ± 0.029
GGGCCGGGGG | 1 ± 0.022
GGGGGGCATC | 1.01 ± 0.024
ACGTTTTGAG | 1.0122 ± 0.00047
CCGTAATGGG | 1.85 ± 0.038
TTTCCGCAGG | 1.24 ± 0.17
CCTGGTACTG | 1.05 ± 0.015
GTTGTGGGGT | 0.976 ± 0.025
TGTGAATTCG | 1.01 ± 0.024
ATATTACGGG | 1.03 ± 0.039
GGAGAACCCT | 1.07 ± 0.038
CGGGGGCACC | 1.07 ± 0.057
ACATAGGAAC | 1.024 ± 0.004
CTGGACCTTG | 0.977 ± 0.026
TGGTGGCCTT | 1.03 ± 0.032
TGGATTTTGG | 0.98 ± 0.021
TGGGCTATTT | 0.964 ± 0.017
GAATTTTTGT | 0.956 ± 0.018
AAAAAAGAAA | 0.982 ± 0.015
AAGTTGGGT | 0.95 ± 0.017

Sequence | switch fluorescence ratio
TCTTAGTAC | 1.05 ± 0.013
TTGCATCTTG | 1.01 ± 0.033
ATAGTCAAAC | 1.027 ± 0.0025
TAGTAATCGA | 1.02 ± 0.018
ACACGGGATG | 1.06 ± 0.077
CCTGATGGTA | 1.03 ± 0.025
TTTAAACGTA | 0.983 ± 0.033
AGAAAAGTGG | 0.985 ± 0.019
CGATCTTGGA | 0.94 ± 0.065
CGTAGGGTTT | 0.976 ± 0.055
CTTTTTAGGC | 1 ± 0.043
AGGGGGATTG | 0.987 ± 0.03
GTGTTTAGCT | 0.992 ± 0.044
GTGAGGGATA | 0.984 ± 0.043
TCAGGGGAGG | 1.03 ± 0.036
GAATGGCATG | 0.991 ± 0.034
TTATCCGGGT | 0.9661 ± 0.0088
GGAAATTGAG | 0.999 ± 0.021
CGTCAGCGAA | 1.18 ± 0.039
GGTTGAAGTG | 0.974 ± 0.012
AACTATTGAA | 1.003 ± 0.0077
GCTGGGGCGG | 0.98 ± 0.029
CTGATTTTCC | 1.01 ± 0.061

Sequence | switch fluorescence ratio
GAATAAGAGA | 0.974 ± 0.036
CCGAGGGGGT | 1.81 ± 1.1
GCGACAAGCT | 0.997 ± 0.015
AAAGGCGGTG | 0.976 ± 0.023
GGTGCGGGTG | 1.03 ± 0.051
ACTTGATACG | 1.08 ± 0.063
TAGTGCAATA | 1.6994 ± 0.00043
TTTGCTCTTA | 1 ± 0.056
GGGGGGACGG | 0.969 ± 0.04
CGCGGGGGGC | 1.05 ± 0.084
CGGAGATCGG | 0.999 ± 0.013
CGTCTTGTGG | 1 ± 0.022
TCGCGGAATT | 1.01 ± 0.066
AAGATTTCGT | 1 ± 0.044
GGGGGTCCAG | 0.997 ± 0.022
TGAAGCTTGT | 1.004 ± 0.003
TTGTGGCTGT | 1.01 ± 0.023
GGGTGTGTTT | 0.985 ± 0.018
GCCTGTTTGG | 1.014 ± 0.01
TGTTGGAAGG | 1.01 ± 0.014
TTGACAGAGT | 1.01 ± 0.028
AACATTGTGG | 1.017 ± 0.0063
AGTTGCCTG | 0.997 ± 0.08

Sequence | switch fluorescence ratio
TTTACGGGTT | 0.988 ± 0.021
GCGACAGGGT | 1.023 ± 0.0055
GGGTGGGACG | 1.23 ± 0.16
TGGACGGGGA | 1.03 ± 0.031
AGGGTCAGTG | 1.02 ± 0.062
GAAGGGATTT | 1.13 ± 0.11
ATTGTTGTGT | 0.9992 ± 0.0099
ATTAGGTACG | 1.02 ± 0.038
GTAGTTTGAA | 0.989 ± 0.036
AAAATACATT | 0.993 ± 0.039
AAGTTTTAAA | 0.968 ± 0.013
GAAGGGGGAG | 0.996 ± 0.028
GAGGGGTGAC | 0.979 ± 0.021
GGATGGTGGA | 0.9966 ± 0.0093
GGGTGGTGTT | 1.01 ± 0.021
AATGGATGCG | 1 ± 0.029
AATGCTGTAT | 0.985 ± 0.011
TGAAAAGCGC | 1.01 ± 0.024
ACCTTTTTAT | 1.02 ± 0.038
GGATGGATGG | 0.993 ± 0.082
AGGATAGCAA | 1.3 ± 0.023
TGTTAATAGT | 0.981 ± 0.015
ATCTGTTTTG | 1.02 ± 0.049

Sequence | switch fluorescence ratio
GGGGGCGTGT | 0.977 ± 0.019
AGGATCGGGG | 1.01 ± 0.013
GGGGTCCTAG | 0.9959 ± 0.0065
GATGTTGCTT | 1.02 ± 0.055
ATTAAAAGTT | 0.984 ± 0.038
TTTTTGATTT | 1.01 ± 0.036
TTTCTTGCCA | 1.02 ± 0.048
ATCAATTGTT | 0.989 ± 0.015
TATCAGTTGT | 1.03 ± 0.013
AGGGCAGCTT | 1.06 ± 0.025
AAGGCGGGTT | 0.9894 ± 0.0085
CAGGCAAGCG | 1.04 ± 0.026
CTAAAGGTTC | 1.05 ± 0.05
CATTATGTGC | 0.981 ± 0.027
GCTGAGAGGC | 1 ± 0.038
CATGCCAAGC | 1.15 ± 0.045
CTCTATTTGA | 0.977 ± 0.016
GTGTTATTGA | 0.97161 ± 0.00039
TTTTATCGGT | 0.979 ± 0.012
